# In the supplement of paper PMC12042874:
# ± gives the uncertainty stated by the source.
# Test: amyloid nucleation score (Sup35N fusion, yeast selection) (log enrichment); library NNK1; higher = more nucleation; inactive = no reads after selection
# Method in brief: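 Output and input plasmid inserts were sequenced by Illumina after psi-negative yeast carrying Sup35N fused to peptides of 20 random codons had been induced 24 hours with 100 μM copper sulfate and grown 7 days at 30°C on medium lacking adenine and uracil. The nucleation score is the DiMSum log enrichment of output over input reads, centred on the mode score of non-aggregating sequences. Sequences with under 100 input reads were excluded.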
row,Substance,amyloid nucleation score
1,WQHSPTYGYLYIHC,0.633 ± 0.18
2,DFSRWIFMTHY,-1.06 ± 0.99
3,SFSIGSFSAPLVAERFCCYT,0.163 ± 0.48
4,VLVDGSRSWGG,0.952 ± 0.52
5,DSQFAVKFCAR,inactive
6,VDSDLGLSERMTVKSTFAFC,0.39 ± 0.56
7,LTNNVYSYVWILSSARISIV,0.87 ± 0.22
8,GCLRTWQITLVEYNCMTLRI,0.215 ± 1.2
9,SLNFT,-0.337 ± 0.31
10,LFCTTSVDNKGPVRLPLVCV,-0.282 ± 1.7
11,VCMWRFLVGRT,-0.238 ± 0.9
12,SEMHHCTRGG,-0.167 ± 0.9
13,LQNIFLKACDWLGCWDVDVM,-0.149 ± 0.93
14,VINWLCWVYLECLWYYWMVG,inactive
15,CILGNME,inactive
16,DFGLYLNNFCNGMHSFDLFN,-0.378 ± 0.19
17,FVDSFVNIWLIKTFSRIVVD,0.161 ± 0.3
18,SCVYCMSRSNWILVWMALLQ,0.614 ± 0.45
19,NRISALWSTMLWFAY,-0.008 ± 0.27
20,IRWTEL,0.512 ± 0.24
21,SPNLI,0.344 ± 0.9
22,ANENLMNRYITNKRSCWCRW,-0.728 ± 0.48

row,Substance,amyloid nucleation score
1,EICYRMICCYSN,0.085 ± 0.66
2,LRTMIVLGFSTWDTCIGSES,-0.537 ± 0.28
3,NSVIFELISSCVNDSNVAGD,1.45 ± 0.63
4,PSRNLVRVDPFLGIRQMVSS,-0.096 ± 1
5,QFSYTRIEVVSDVHLVNVVN,0.373 ± 0.3
6,TDWFSSMLEN,0.291 ± 0.3
7,TTGSALTETATDQVGWNYSL,0.265 ± 0.41
8,DMCNLTRLPLVYFM,-0.037 ± 1.7
9,FCEWYLTDDFFYSLCFFFNE,0.031 ± 0.55
10,LRITYMSLVEYG,1.35 ± 0.69
11,YWCNYVIVMSCKWG,inactive
12,YTGIPRSS,0.203 ± 0.28
13,SNFCDTCLKLRGNTCMASFT,-0.259 ± 0.42
14,YYSVGYGTYLTEFLCGNLRG,0.989 ± 0.35
15,VYCCTYVQINVGVERSTEIR,7.044 ± 0.05
16,TTPFLHKENLNSIMK,0.396 ± 0.26
17,GYFVYYFLFIYCVFRVFSTL,4.82 ± 0.12
18,FKNLCRAVS,0.059 ± 0.53
19,IISISINGSVRWSCTRSGAD,0.499 ± 0.53
20,DTSNHEGE,-0.554 ± 1.7
21,CVTLTCLLSSIV,1.84 ± 0.12
22,WKRSEINDVFVM,inactive

row,Substance,amyloid nucleation score
1,MFVSDQINYCMSTVAVH,0.201 ± 0.27
2,ASKMALYPG,0.366 ± 0.56
3,LGFTRIGPGALTAKA,-0.72 ± 1.2
4,VTFLIMGWLRDRRV,-0.563 ± 0.39
5,RGMSTNSRECHNMCFQVGV,0.228 ± 0.49
6,IAYDRRFIDLTRFIAIKFYI,-0.021 ± 0.93
7,GSSFVI,inactive
8,VMGLT,-0.242 ± 1.1
9,NRYSYYFLLI,3.16 ± 0.1
10,SNCRDKRFMY,0.637 ± 0.79
11,NVSEVCKYYPLFRSD,-0.007 ± 0.23
12,SLYGYCLYARMCTASSKKLI,1.09 ± 0.28
13,VAPQGNPMWSKDLL,1.8 ± 0.18
14,GTSLRSGWRYCEFTRRSCLV,0.068 ± 0.6
15,RVSAMNEGMRIVCWLVFFRP,-0.166 ± 0.9
16,LPCLSMKVLDTNYNLPCSKN,-0.458 ± 0.32
17,LVSVCLGCEVCIFVVYIPNP,inactive
18,GPVSGHRPIVRD,-0.179 ± 1.1
19,LFKSPWGDDHSIST,0.434 ± 0.29
20,QAFGRLSLATQPLLMEPRRL,0.868 ± 0.41
21,LFRYTVRQGWFKRETHWVPM,0.296 ± 0.53
22,TRMITWRPFRSSWVFTNLYE,2.04 ± 0.19

row,Substance,amyloid nucleation score
1,NLFNYLSFD,-0.675 ± 0.49
2,ASFHNVQIGAYNMCKMNKGC,1.75 ± 0.34
3,SRLWSSCHCHLAAYSVIHDD,inactive
4,ALYPPAGAGLRECRARSLSA,0.341 ± 0.5
5,GNSHMFIIAYSTYMLYTQTL,0.845 ± 0.55
6,GTCFCFITVSLLLVPVVLSD,-1.02 ± 2.7
7,HTSCRTVQHLKVWFPVK,1.25 ± 0.74
8,MKAVELSPLKYTCLAN,0.313 ± 0.74
9,MFCRVVRGGCGSSIGC,0.249 ± 0.79
10,GAGRNSWRCCNLLFSEDMIG,2.79 ± 0.088
11,LFFCGLGERG,inactive
12,RYCCHMSRSTYNIICCRWTN,inactive
13,IYCGNSEF,-0.048 ± 0.79
14,VMMYLFYFHTRMCMSHLCYA,-0.891 ± 1.6
15,LMWDIWVSYGGAKMSDWSKG,-0.225 ± 0.31
16,NRMLSSKQAPSQNFQ,0.814 ± 0.46
17,YISEM,0.544 ± 0.35
18,SYGLCMMAFLSLDAS,0.517 ± 0.28
19,AYRNKETMCSLRTCRMVCSR,0.206 ± 0.34
20,ATRFTR,0.282 ± 0.5
